Laboratory results reported in paper PMC6457538.

Target: HoLaMa DNA polymerase (Klenow sub-fragment lacking the 3'-5' exonuclease domain) (UniProt P00582)
Assay: intrinsic tryptophan fluorescence quenching titration
Settings: 500 nM enzyme; n = 1.24 ± 0.03 DNA per enzyme; no dNTP; Kd titration: 50 mM sodium phosphate pH 8.0, 50 mM NaCl, temperature not stated in the material; stopped-flow: 50 mM Tris-HCl pH 8.0, 0.5 mM EDTA, 10 mM MgCl2 …

Chain of UniProt P00582 (P00582 whole entry, the tested form may be a part): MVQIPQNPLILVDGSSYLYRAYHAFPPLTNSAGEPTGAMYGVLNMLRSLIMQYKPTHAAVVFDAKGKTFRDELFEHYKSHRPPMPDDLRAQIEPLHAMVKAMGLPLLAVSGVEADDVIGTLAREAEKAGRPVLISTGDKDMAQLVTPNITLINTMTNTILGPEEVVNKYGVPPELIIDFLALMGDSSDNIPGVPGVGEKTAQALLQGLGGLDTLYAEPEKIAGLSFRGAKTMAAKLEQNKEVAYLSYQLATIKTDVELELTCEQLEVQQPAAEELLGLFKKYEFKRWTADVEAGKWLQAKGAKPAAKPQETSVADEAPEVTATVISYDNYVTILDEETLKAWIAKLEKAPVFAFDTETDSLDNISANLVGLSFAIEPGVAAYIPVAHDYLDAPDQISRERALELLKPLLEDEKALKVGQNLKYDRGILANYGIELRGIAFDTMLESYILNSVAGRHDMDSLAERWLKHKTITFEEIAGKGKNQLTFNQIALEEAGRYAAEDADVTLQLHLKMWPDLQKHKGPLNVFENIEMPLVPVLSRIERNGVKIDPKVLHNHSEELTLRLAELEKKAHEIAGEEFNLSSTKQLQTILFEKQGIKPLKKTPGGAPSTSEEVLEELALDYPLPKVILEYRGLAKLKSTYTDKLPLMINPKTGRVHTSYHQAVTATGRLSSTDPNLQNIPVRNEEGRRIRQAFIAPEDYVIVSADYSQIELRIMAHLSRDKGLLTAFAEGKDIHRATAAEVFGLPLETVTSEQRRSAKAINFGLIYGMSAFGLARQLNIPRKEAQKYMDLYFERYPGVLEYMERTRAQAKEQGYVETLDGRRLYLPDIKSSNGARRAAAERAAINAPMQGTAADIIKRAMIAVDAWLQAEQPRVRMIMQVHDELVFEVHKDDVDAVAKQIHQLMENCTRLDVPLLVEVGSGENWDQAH

## AAAAAAAAAAAAAAAAAAAAAAAAAAAAAAAAGCGCGCGC / GCGCGCGCTTTTTTT [40mer polyA DNA (40mer template / 15mer primer)]
  Kd: 0.0351 µM
